Data published in patent publication US20150064204A1 (Amgen, published 2015).

Key:
[1] = biological target: T1, human GITR (Glucocorticoid-induced TNFR-related gene, TNFRSF18) (human, UniProt Q9Y5U5 26-241); experiment: cell-based or functional assay
T1 sequence: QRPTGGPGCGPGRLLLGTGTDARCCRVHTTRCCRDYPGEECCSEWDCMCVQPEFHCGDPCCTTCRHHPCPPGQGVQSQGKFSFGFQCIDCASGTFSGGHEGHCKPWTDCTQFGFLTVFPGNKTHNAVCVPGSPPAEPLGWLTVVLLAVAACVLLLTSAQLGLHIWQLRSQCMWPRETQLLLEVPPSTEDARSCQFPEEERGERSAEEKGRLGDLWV

[2] = biological target: T1, human GITR (Glucocorticoid-induced …); experiment: flow cytometry (MFI), antibody titration on anti-CD3-activated primary human T cells (CD25+CD4+)
human GITR [3] = biological target: T2, human GITR (human, UniProt Q9Y5U5 26-241); experiment: cell-based or functional assay
T2 sequence: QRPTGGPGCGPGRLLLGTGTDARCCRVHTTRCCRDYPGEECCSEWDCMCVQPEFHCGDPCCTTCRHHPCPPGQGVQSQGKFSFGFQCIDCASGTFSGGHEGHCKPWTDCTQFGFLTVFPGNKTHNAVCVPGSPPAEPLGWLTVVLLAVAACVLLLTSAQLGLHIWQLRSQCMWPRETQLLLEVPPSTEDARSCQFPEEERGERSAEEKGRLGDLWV

human GITR [4] = biological target: T2, human GITR; experiment: flow cytometry on activated human T cells

B1: 34G4 (antibody, human IgG1, kappa, V domains shown)
VH: QVQLVESGGGVVQPGRSLRLSCAASGFTFSSYGMHWVRQAPGKGLEWVAVIWYEGSNKYYADSVKGRFTISRDNSKNTLYLQMNSLRAEDTAVYYCARGGQLGYYYYYGMDVWGQGTTVTVSS
VL: DIQMTQSPSSLSASVGDRVTITCRASQGIRNDLGWYQQKPGKAPKRLIYDASSLQSGVPSRFSGSGSGTDFTLTISSLQPEDFATYYCLQLNSYPWTFGQGTKVEIKR
notes: Fully human parental antibody; also called Ab4; SS-12415
IFNg Secretion (Fold over CD3) [1]: 1.9 fold over CD3
IFNg Secretion EC50 [1]: 0.0002 µg/mL
EC50 [2]: 0.038 µg/mL

B2: 49D9v1 (antibody, human IgG1, kappa, V domains shown)
VH: QMQLVESGGGVVQPGGSLRLSCAASGFTFSSYGMHWVRQAPGKGLEWVAVIWYAGSNKYYADSVKGRFTISRDNSKNTLYLQMNSLRAEDTAVYYCARGGRLGFYYYYGMDVWGQGTTVTVSS
VL: DIQMTQSPSSLSASVGDRVTITCRASQGIRNDLGWYQQKPGKAPKRLIYAASSLQSGVPSRFSGSGSGTEFTLTISSLQPEDFATYYCLQLNSYPWTFGQGTKVEIKR
notes: tied to 49D9v1 by Ab22 / SS-12562; also called Ab22; SS-12562
IFNg Secretion (Fold over CD3) [1]: 1.3 fold over CD3
IFNg Secretion EC50 [1]: 0.0005 µg/mL
EC50 [2]: 0.051 µg/mL

B3: 35B10 (antibody, human IgG1, kappa, V domains shown)
VH: QVQLVESGGGVVQPGRSLRLSCAASGFTFSSYGMHWVRQAPGKGLEWVAVIWYAGSNKYYADSVKGRFTISRDNSKNTLYLQMNSLRAEDTAVYYCARGGELSFYYYYGMDVWGQGTTVTVSS
VL: DIQMTQSPSSLSASVGDRVTITCRASQGIRNDLGWYQQKPGKAPKRLIYAASTLQSGVPSRFSGSGSGTEFTLTISSLQPEDFATYYCLQHNNYPWTFGQGTKVEIKR
notes: Fully human parental antibody; also called Ab5; SS-12416
IFNg Secretion (Fold over CD3) [1]: 1.9 fold over CD3
IFNg Secretion EC50 [1]: 0.0005 µg/mL
EC50 [2]: 0.033 µg/mL

B4: 41G5 (antibody, human IgG1, kappa, V domains shown)
VH: QVQLVESGGGVVQPGRSLRLSCAASGFTFSSYGMHWVRQAPGKGLEWVAVIWYPGSNKYYADSVKGRFTISRDNSKNTLYLQMNSLRAEDTAVYYCARGGELGRYYYYGMDVWGQGTTVTVSS
VL: DIQMTQSPSSLSASVGDRVTVTCRASQGIRNDLGWYQQKPGKAPKRLIYAASSLQSGVPSRFSGSGSGTEFTLTISSLQPEDFATYYCLQHNNYPWTFGQGTKVDIKR
notes: Fully human parental antibody; also called Ab7; SS-12428
IFNg Secretion (Fold over CD3) [1]: 1.9 fold over CD3
IFNg Secretion EC50 [1]: 0.0008 µg/mL
EC50 [2]: 0.033 µg/mL

B5: 42A11 (antibody, human IgG1, kappa, V domains shown)
VH: QVQLVESGGGVVQPGRSLRLSCAASGFTFSSYGMHWVRQAPGKGLEWVAVIWYEGSNKYYADSVKGRFTISRDNSKNTLYLQMNSLRAEDTAVYYCARGGQLGYYYYSGMDVWGQGTTVTVSS
VL: DIQMTQSPSSLSASVGDRVTITCRASQGIRNDLGWYQQKPGKAPKRLIYDASSLQSGVPSRFSGSGSGTDFTLTISSLQPEEFATYYCLQHNNYPWTFGQGTKVEIKR
notes: Fully human parental antibody; also called Ab8; SS-12418
IFNg Secretion (Fold over CD3) [1]: 1.9 fold over CD3
IFNg Secretion EC50 [1]: 0.0012 µg/mL
EC50 [2]: 0.051 µg/mL

B6: 48H7 (antibody, human IgG1, kappa, V domains shown)
VH: QVQLVESGGGVVQPGRSLRLSCAASGFTFSSYGMYWVRQAPGKGLEWVAVIWYEGSNKYYADSVKGRFTISRDNSKNTLYLQMNSLRAEDTAVYFCARGGELGRDYYSGMDVWGQGTTVTVSS
VL: DIQMTQSPSSLSASVGDRVTITCRASQVIRNDLGWYQQKPGKAPKRLIYAASSLQSGVPSRFSGSGSGTEFTLTISSLQPEDFATYYCLQHNSYPITFGGGTKVEIKR
notes: Fully human parental antibody; also called Ab13; SS-12423
IFNg Secretion (Fold over CD3) [1]: 1.2 fold over CD3
IFNg Secretion EC50 [1]: 0.0006 µg/mL
EC50 [2]: 0.045 µg/mL

B7: 1D7 (antibody, human IgG1, kappa, V domains shown)
VH: QVQLVESGGGVVQPGRSLRLSCAASGFTFSSYGMHWVRQAPGKGLEWVTVIWYEGSNKYYADSVKGRFTISRDNSKNTLYLQMNSLRAEDTAVYYCARGGQLGKYYYYGMDVWGQGTTVTVSS
VL: DIQMTQSPSSLSASVGDRVTITCRASQGIRNDLGWYQQKPGKAPKRLIYDASSLQSGVPSRFSGSGSGTEFTLTISSLQPEDFATYYCLQHNNYPWTFGQGTKVEIKR
notes: Fully human parental antibody; also called Ab1; SS-10942
IFNg Secretion (Fold over CD3) [1]: 2.2 fold over CD3
IFNg Secretion EC50 [1]: 0.0008 µg/mL
EC50 [2]: 0.024 µg/mL

B8: 33C9 (antibody, human IgG1, kappa, V domains shown)
VH: QVQVVESGGGVVQPGRSLRLSCAASGFTFSSYGMHWVRQAPGKGLEWVSVIWYEGSNKYYADSVKGRFTISRDNSKNTLYLQMNSLRAEDTAVYYCARGGLLGYYYYYGMDVWGQGTTVTVSS
VL: DIQMTQSPSSLSASVGDRVTITCRASQGIRNDLGWYQQKPGKAPKRLIYDASSLQSGVPSRFSGSGSGTEFTLTISSLQPEDFATYYCLQHHSYPWTFGQGTKVEIKR
notes: Fully human parental antibody; also called Ab2; SS-12413
IFNg Secretion (Fold over CD3) [1]: 2.7 fold over CD3
IFNg Secretion EC50 [1]: 0.001 µg/mL
EC50 [2]: 0.035 µg/mL

B9: 33F6 (antibody, human IgG1, kappa, V domains shown)
VH: QVQLVESGGGVVQPGRSLRLSCAASGFTFSNYGMHWVRQAPGKGLEWVAVIWYVGSNKYYADSVKGRFTISRDNSKNTLYLQMNSLRAEDTAVYYCARGGELRLYYYYGMDVWGQGTTVTVSS
VL: DIQMTQSPSSLSASVGDRVTITCRASQGIRNDLGWYQQKPGKAPKRLIYAASSLQSGVPSRFSGSGSGTEFTLTVSSLQPEDFATYYCLQLNSYPWTFGQGTKVEIKR
notes: Fully human parental antibody; also called Ab3; SS-12414
IFNg Secretion (Fold over CD3) [1]: 2.8 fold over CD3
IFNg Secretion EC50 [1]: 0.0004 µg/mL
EC50 [2]: 0.053 µg/mL

B10: 7A10 (antibody, human IgG1, kappa, V domains shown)
VH: QVQLVESGGGVVQPGRSLRLSCAASGFTFSSYGMHWVRQAPGKGLEWMAVIWYVGSNKYYADSVKGRFTISRDNSKNTLYLQMNSLSAEDTAVYYCARGGELGRDYYSGMDVWGQGTTVTVSS
VL: DIQMTQSPSSLSASVGDRVTITCRASQGIRNDLGWYQQKPGKAPKRLIYAASSLQSGVPSRFSGSGSGTEFTLTISSLQPEDFATYYCQQHNSYPWTFGQGTKVEIKR
notes: Fully human parental antibody; also called Ab18; SS-10944
IFNg Secretion (Fold over CD3) [1]: 2.2 fold over CD3
IFNg Secretion EC50 [1]: 0.0002 µg/mL
EC50 [2]: 0.027 µg/mL

B11: 48H12 (antibody, human IgG1, kappa, V domains shown)
VH: QVQLVESGGGVVQPGRSLRLSCAASGFTFSSYGMHWVRQAPGKGLEWVAVIWYAGSNKYYADSVKGRFTISRDNSKNTVYLQMNSLRAEDTAVYYCARGGQLALYYYYGMDVWGQGTTVTVSS
VL: DIQMTQSPSSLSASVGDRVTITCRASQGIRNDLGWYQQKPGKAPKRLIYAASSLQSGVPSRFSGSGSGTEFTLTISSLQPEDFATYYCLQHNNYPWTFGQGTKVEIKR
notes: Fully human parental antibody; also called Ab12; SS-12422
IFNg Secretion (Fold over CD3) [1]: 1.2 fold over CD3
IFNg Secretion EC50 [1]: 0.0008 µg/mL
EC50 [2]: 0.048 µg/mL

B12: 5H7 (antibody, human IgG1, kappa, V domains shown)
VH: QVQLQESGPGLVKPSQTLSLTCTVSGGSISSGGYFWSWIRQHPGKGLEWIGYIYYSGTTYYNPSLKSRVTISIDTSKNHFSLKLSSVTAADTAVYYCARDLFYYDSSGPRGFDPWGQGTLVTVSS
VL: EIVLTQSPGTLSLSPGERATLSCRASQTVSSNYLAWYQQKPGQAPRLLIYGSSTRATGIPDRFSGSGSGTDFTLTISRLEPEDFAVYYCQQYDSSPWTFGQGTKVEIKR
notes: Fully human parental antibody; also called Ab17; SS-10943
IFNg Secretion (Fold over CD3) [1]: 2.9 fold over CD3
IFNg Secretion EC50 [1]: 0.0113 µg/mL
EC50 [2]: 0.164 µg/mL

B13: 5H7v14 (antibody, human IgG1, kappa, V domains shown)
VH: QVQLQESGPGLVKPSETLSLTCTVSGGSISSGGYFWSWIRQPPGKGLEWIGYIYYSGTTYYNPSLKSRVTISIDTSKNQFSLKLSSVTAADTAVYYCARDLFYYDSSGPRGFEPWGQGTLVTVSS
VL: EIVLTQSPGTLSLSPGERATLSCRASQTVSSNYLAWYQQKPGQAPRLLIYGSSTRATGIPDRFSGSGSGTDFTLTISRLEPEDFAVYYCQQYESSPWTFGQGTKVEIKR
notes: Engineered variant; also called Ab34; SS-16924
Proliferation (Fold over CD3) (human GITR [3]): 1.9 fold over CD3
Proliferation EC50 (human GITR [3]): 0.031 µg/mL
EC50 (human GITR [4]): 0.995 µg/mL

B14: 5H7v7 (antibody, human IgG1, kappa, V domains shown)
VH: QVQLQESGPGLVKPSETLSLTCTVSGGSISSGGYFWSWIRQPPGKGLEWIGYIYYSGTTYYNPSLKSRVTISIDTSKNQFSLKLSSVTAADTAVYYCARDLFYYDTSGPRGFEPWGQGTLVTVSS
VL: EIVLTQSPGTLSLSPGERATLSCRASQTVSSNYLAWYQQKPGQAPRLLIYGSSTRATGIPDRFSGSGSGTDFTLTISRLEPEDFAVYYCQQYDSSPWTFGQGTKVEIKR
notes: Engineered variant; also called Ab29; SS-16917
Proliferation (Fold over CD3) (human GITR [3]): 2.1 fold over CD3
Proliferation EC50 (human GITR [3]): 0.028 µg/mL
EC50 (human GITR [4]): 0.461 µg/mL

B15: 5H7v18 (antibody, human IgG1, kappa, V domains shown)
VH: QVQLQESGPGLVKPSETLSLTCTVSGGSISSGGYFWSWIRQPPGKGLEWIGYIYYSGTTYYNPSLKSRVTISIDTSKNQFSLKLSSVTAADTAVYYCARDLFYYDSSGPRGFEPWGQGTLVTVSS
VL: EIVLTQSPGTLSLSPGERATLSCRASQTVSSNYLAWYQQKPGQAPRLLIYGSSTRATGIPDRFSGSGSGTDFTLTISRLEPEDFAVYYCQQYDTSPWTFGQGTKVEIKR
notes: Engineered variant; also called Ab36; SS-16928
Proliferation (Fold over CD3) (human GITR [3]): 2.7 fold over CD3
Proliferation EC50 (human GITR [3]): 0.012 µg/mL
EC50 (human GITR [4]): 0.804 µg/mL

B16: 5H7v22 (antibody, human IgG1, kappa, V domains shown)
VH: QVQLQESGPGLVKPSETLSLTCTVSGGSISSGGYFWSWIRQPPGKGLEWIGYIYYSGTTYYNPSLKSRVTISIDTSKNQFSLKLSSVTAADTAVYYCARDLFYYDTSGPRGFEPWGQGTLVTVSS
VL: EIVLTQSPGTLSLSPGERATLSCRASQTVSSNYLAWYQQKPGQAPRLLIYGSSTRATGIPDRFSGSGSGTDFTLTISRLEPEDFAVYYCQQYESSPWTFGQGTKVEIKR
notes: Engineered variant; also called Ab38; SS-16932
Proliferation (Fold over CD3) (human GITR [3]): 1.7 fold over CD3
Proliferation EC50 (human GITR [3]): 0.027 µg/mL
EC50 (human GITR [4]): 0.786 µg/mL
